Source: US20120058100A1, “MODULATION OF DRUG RELEASE RATE FROM ELECTROSPUN FIBERS” (priority 2006, published 2012)

Assay: Release of FITC-BSA from emulsion-electrospun PU, PLA and co-spun fibers in PBS
Assay type: physicochemical
Protocol: Polymers were dissolved in organic solvent and emulsified with a H2O/Poly(vinyl alcohol) mixture with the molecule to be released dispersed in the aqueous phase. Polyurethane (PU) was dissolved at 6 wt % in a mixture of chloroform and tetrahydrofuran. PLA was dissolved at 2 wt % in chloroform. Drugs were loaded into the PVA/Water mixture with aqueous volume fractions ranging from 10-20 vol %. Emulsions were loaded into plastic syringe fitted with a blunt tip 18-gauge needle and placed into a syringe pump.
Circular discs were punched out from the aluminum foil and polymer fibers removed from Al-backing. Samples placed in centrifuge tubes individual glass vials with PBS. Samples degraded in at room temperature (20° C.) on a rotisserie. The buffer was sampled at given intervals. Depending on release molecule, different spectrophotometric techniques were used to measure release profiles.
The concentration was determined fluorometrically by measuring […] at λ=495 nm. Samples were placed in 10 ml of PBS and 200 μl of buffer was used to run the assay and not replaced (total amount withdrawn from tube was less than 40% of total volume). Average concentration plotted over 360 hour time course (n=3).

Substance: FITC-BSA: fluorescein isothiocyanate conjugated albumin, a model protein
- duration over which release can be achieved (PU and PLA fibers): ≥ 15 days
- release from meshes of co-spun PLA and PU fibers relative to pure PLA or PU meshes (co-spun PLA and PU fibers): intermediate manner
- release rate relative to doxycycline (electrospun fibers): much slower release rates
